Laboratory results from patent US20250235501A1 (UNIVERSITY OF CONNECTICUT, published 2025).

Target: T1, Endogenous TRPM2 of mouse brain and cultured mouse cortical neurons (mouse, UniProt Q91YD4 1-1506)
T1 construct: whole, on cells
Assay: co-IP with anti-TRPM2, western blot, PKCγ/TRPM2 ratio, brain tissue
Experimental: Thus, whether PKC interacts with TRPM2 was investigated.
NP-40 lysis buffer ([…], 150 mM NaCl, 1 mM EDTA, 50 mM Tris, pH=8.0) containing proteinase inhibitors (Sigma-Aldrich, 539131-10VL) and phosphatase inhibitors (Thermal Fisher Scientific, 78428) was used to lyse both cultured cells and frozen brain tissue. For transfected cells, proteins were extracted 36 hours after transfection. Cell and tissue lysate were lysed by ultrasound using an ultrasonic cleaner (Thermal Fisher Scientific) filled with ice-cold water for 30 min. After incubated on ice for 1 h, lysate was centrifuged at 13000 g for 30 min and supernatant was collected. Protein concentration was measured using Pierce™ Rapid Gold BCA Protein Assay Kit (Thermal Fisher Scientific, A53225). 300 μg of protein was taken and diluted using NP-40 lysis buffer to make a total volume of 500 μl. Unused protein was allocated and frozen at −80° C. for future use. Appropriate amount of antibody was added based on instruction. After protein-antibody mixture was incubated on ice for 2 h, 25 μL of pre-washed Protein A/G PLUS-Agarose (Santa Cruz Biotechnology, sc-2003) was added, and the whole mixture was incubated at 4° C. for overnight. Then the mixture was centrifuged at 2500 g for Imin to get agarose beads. […] Then samples were ready for western blotting analysis.

T1 sequence (Q91YD4 whole entry): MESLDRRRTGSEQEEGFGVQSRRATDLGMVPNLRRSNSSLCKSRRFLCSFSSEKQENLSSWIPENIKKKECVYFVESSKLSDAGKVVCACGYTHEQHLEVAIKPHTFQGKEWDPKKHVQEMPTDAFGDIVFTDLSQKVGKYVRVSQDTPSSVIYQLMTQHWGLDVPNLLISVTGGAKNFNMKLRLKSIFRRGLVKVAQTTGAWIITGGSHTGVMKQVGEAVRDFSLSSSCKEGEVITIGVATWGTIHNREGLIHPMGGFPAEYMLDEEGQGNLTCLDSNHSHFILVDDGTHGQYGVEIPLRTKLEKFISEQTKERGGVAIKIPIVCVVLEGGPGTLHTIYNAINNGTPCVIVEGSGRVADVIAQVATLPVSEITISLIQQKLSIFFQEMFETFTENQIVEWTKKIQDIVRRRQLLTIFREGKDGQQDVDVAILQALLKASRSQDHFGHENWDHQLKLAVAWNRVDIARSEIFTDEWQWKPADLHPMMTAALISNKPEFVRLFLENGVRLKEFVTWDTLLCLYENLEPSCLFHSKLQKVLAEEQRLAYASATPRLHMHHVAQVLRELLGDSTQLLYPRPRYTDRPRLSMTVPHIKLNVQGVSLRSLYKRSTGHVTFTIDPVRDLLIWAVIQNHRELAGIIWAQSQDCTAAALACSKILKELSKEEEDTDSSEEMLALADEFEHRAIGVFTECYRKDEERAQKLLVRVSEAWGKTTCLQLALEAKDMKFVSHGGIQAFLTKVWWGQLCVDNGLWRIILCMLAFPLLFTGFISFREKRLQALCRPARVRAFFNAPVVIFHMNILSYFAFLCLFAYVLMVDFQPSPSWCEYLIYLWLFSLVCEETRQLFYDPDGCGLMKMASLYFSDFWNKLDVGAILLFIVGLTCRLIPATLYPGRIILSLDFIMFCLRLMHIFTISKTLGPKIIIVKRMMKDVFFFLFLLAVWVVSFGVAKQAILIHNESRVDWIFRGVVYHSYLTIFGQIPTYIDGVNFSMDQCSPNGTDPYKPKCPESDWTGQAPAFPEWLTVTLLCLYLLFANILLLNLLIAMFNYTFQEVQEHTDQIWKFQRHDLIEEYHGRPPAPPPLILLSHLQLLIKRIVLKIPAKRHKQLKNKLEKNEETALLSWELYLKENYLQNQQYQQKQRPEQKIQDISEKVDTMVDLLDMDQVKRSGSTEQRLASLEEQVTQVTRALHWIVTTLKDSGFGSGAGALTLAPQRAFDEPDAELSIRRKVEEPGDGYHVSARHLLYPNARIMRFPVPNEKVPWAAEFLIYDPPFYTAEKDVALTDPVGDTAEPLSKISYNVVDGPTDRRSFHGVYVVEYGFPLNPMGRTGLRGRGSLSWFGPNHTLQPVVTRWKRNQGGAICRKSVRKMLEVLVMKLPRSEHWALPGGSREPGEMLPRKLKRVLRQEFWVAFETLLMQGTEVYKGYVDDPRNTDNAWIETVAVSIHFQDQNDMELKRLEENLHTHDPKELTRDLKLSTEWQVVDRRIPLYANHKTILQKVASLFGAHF

amount of PKCγ pulled down by anti-TRPM2, MCAO against sham mice: ~1.5 fold
B1: Endogenous PKCγ of mouse brain and cultured mouse cortical neurons (enzyme)
chain: not shown
notes: whole, on cells; also called neuron-specific PKC
